This note sets out measurements from article PMC11301080.

The target in this test is recombinant HIV-1 gp120 ZM109 (HIV-1). Nature of the test: BLI. In general terms: In BLI a coated tip is dipped into the sample, and binding shifts an interference pattern.

pKd: −log10 of the molar value.

In general, pKd refers to the Kd on a negative log10 scale, so that one unit is a factor of ten. Consider “recombinant FimH protein, lectin domain only (from UniProt P08191 22-179) (domain or fragment)”, for which the pKd is 6.44.

For the substance “Streptococcal Siglec-like lectin SLBR-N, GST-tagged (domain or fragment)”, the pKd is 7.39.
